Laboratory results reported in patent publication US20150344570A1 (published 2015).
Substitutions are numbered along the chain they refer to.

T1: FcγRIIb (human, UniProt P31994 43-217)
T1 construct: extracellular domain; also called FcgRIIb; 2b
T1 sequence (looked up): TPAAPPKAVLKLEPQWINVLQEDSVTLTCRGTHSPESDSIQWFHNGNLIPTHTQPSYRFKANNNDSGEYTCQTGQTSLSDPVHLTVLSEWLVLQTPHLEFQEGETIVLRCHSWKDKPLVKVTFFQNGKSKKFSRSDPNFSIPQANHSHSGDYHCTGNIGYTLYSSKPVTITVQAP

T2: FcγRIIa H (human, UniProt P12318 34-217)
T2 construct: extracellular domain; also called FcγRIIa type H; 2aH
T2 sequence (looked up): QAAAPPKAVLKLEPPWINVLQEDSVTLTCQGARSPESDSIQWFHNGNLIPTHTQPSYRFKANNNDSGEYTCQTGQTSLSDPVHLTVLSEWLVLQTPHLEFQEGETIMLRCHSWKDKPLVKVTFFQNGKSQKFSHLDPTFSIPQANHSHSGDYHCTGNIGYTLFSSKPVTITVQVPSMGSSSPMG

T3: FcγRIIb (human, UniProt P31994 43-217)
T3 construct: extracellular domain; also called 2b; FcgRIIb
T3 sequence (looked up): T1 sequence (looked up)

T4: FcγRIIa R extracellular domain with C-terminal His tag (human, UniProt P12318 34-217)
T4 construct: extracellular domain; also called FcgRIIa R; 2aR; not shown: His tag at the C terminus
T4 sequence (looked up): T2 sequence (looked up) with H134R

B1: GpH7-A5/GpH7-B3 variant D265_15Y/GpL16-k0 (antibody, human IgG1, kappa)
heavy 1: not shown
heavy 2: not shown
light: DIVMTQSPLSLPVTPGEPASISCQASESLVHSNRNTYLHWYLQKPGQSPQLLIYKVSNRFSGVPDRFSGSGSGTDFTLKISRVEAEDVGVYYCSQNTHVPPTFGQGTKVEIERTVAAPSVFIFPPSDEQLKSGTASVVCLLNNFYPREAKVQWKVDNALQSGNSQESVTEQDSKDSTYSLSSTLTLSKADYEKHKVYACEVTHQGLSSPVTKSFNRGEC
notes: heterodimerized anti-glypican-3 IgG1; alteration in one H chain only; also called He Ab
B2: GpH7-A5/GpH7-B3 variant D270_01G/GpL16-k0 (antibody, human IgG1, kappa)
heavy 1: not shown
heavy 2: not shown
light: B1 light
notes: Heterodimerized anti-glypican-3 IgG1 (He Ab); mutation in the B3 H chain only; also called He Ab
B3: GpH7-A5/GpH7-B3 variant T335_07I/GpL16-k0 (antibody, human IgG1, kappa)
heavy 1: not shown
heavy 2: not shown
light: B1 light
notes: heterodimerized: alteration in one H chain only; also called He Ab T335_07I
B4: GpH7-A5/GpH7-B3 variant D270_02A/GpL16-k0 (antibody, human IgG1, kappa)
heavy 1: not shown
heavy 2: not shown
light: B1 light
notes: as for B2
B5: GpH7-A5/GpH7-B3 variant D270_16H/GpL16-k0 (antibody, human IgG1, kappa)
heavy 1: not shown
heavy 2: not shown
light: B1 light
notes: as for B2
B6: GpH7-A5/GpH7-B3 variant T335_10E/GpL16-k0 (antibody, human IgG1, kappa)
heavy 1: not shown
heavy 2: not shown
light: B1 light
notes: heterodimerized: alteration in one H chain only; also called He Ab T335_10E
B7: GpH7-A5/GpH7-B3 variant D270_19Q/GpL16-k0 (antibody, human IgG1, kappa)
heavy 1: not shown
heavy 2: not shown
light: B1 light
notes: as for B2
B8: GpH7-A5/GpH7-B3 variant D270_08L/GpL16-k0 (antibody, human IgG1, kappa)
heavy 1: not shown
heavy 2: not shown
light: B1 light
notes: as for B2
B9: GpH7-A5/GpH7-B3 variant D270_10E/GpL16-k0 (antibody, human IgG1, kappa)
heavy 1: not shown
heavy 2: not shown
light: B1 light
notes: as for B2
B10: GpH7-A5/GpH7-B3 variant D270_12R/GpL16-k0 (antibody, human IgG1, kappa)
heavy 1: not shown
heavy 2: not shown
light: B1 light
notes: as for B2
B11: GpH7-A5/GpH7-B3 variant V266_12R/GpL16-k0 (antibody, human IgG1, kappa)
heavy 1: not shown
heavy 2: not shown
light: B1 light
notes: as for B1
B12: GpH7-A5/GpH7-B3 variant D270_18N/GpL16-k0 (antibody, human IgG1, kappa)
heavy 1: not shown
heavy 2: not shown
light: B1 light
notes: as for B2
B13: GpH7-A5/GpH7-B3 variant S337_10E/GpL16-k0 (antibody, human IgG1, kappa)
heavy 1: not shown
heavy 2: not shown
light: B1 light
notes: heterodimerized: alteration in one H chain only; also called He Ab S337_10E
B14: GpH7-A5/GpH7-B3 variant D270_13S/GpL16-k0 (antibody, human IgG1, kappa)
heavy 1: not shown
heavy 2: not shown
light: B1 light
notes: as for B2
B15: GpH7-A5/GpH7-B3 variant D270_14T/GpL16-k0 (antibody, human IgG1, kappa)
heavy 1: not shown
heavy 2: not shown
light: B1 light
notes: as for B2
B16: GpH7-A5/GpH7-B3 variant T335_05P/GpL16-k0 (antibody, human IgG1, kappa)
heavy 1: not shown
heavy 2: not shown
light: B1 light
notes: heterodimerized: alteration in one H chain only; also called He Ab T335_05P
B17: GpH7-A5/GpH7-B3 variant D270_06M/GpL16-k0 (antibody, human IgG1, kappa)
heavy 1: not shown
heavy 2: not shown
light: B1 light
notes: as for B2
B18: GpH7-A5/GpH7-B3 variant D265_20W/GpL16-k0 (antibody, human IgG1, kappa)
heavy 1: not shown
heavy 2: not shown
light: B1 light
notes: as for B1
B19: GpH7-A5/GpH7-B3 variant S337_15Y/GpL16-k0 (antibody, human IgG1, kappa)
heavy 1: not shown
heavy 2: not shown
light: B1 light
notes: heterodimerized: alteration in one H chain only; also called He Ab S337_15Y
B20: GpH7-A5/GpH7-B3 variant D270_15Y/GpL16-k0 (antibody, human IgG1, kappa)
heavy 1: not shown
heavy 2: not shown
light: B1 light
notes: as for B2
B21: GpH7-A5/GpH7-B3 variant D270_04F/GpL16-k0 (antibody, human IgG1, kappa)
heavy 1: not shown
heavy 2: not shown
light: B1 light
notes: as for B2
B22: GpH7-A5/GpH7-B3 variant S337_19Q/GpL16-k0 (antibody, human IgG1, kappa)
heavy 1: not shown
heavy 2: not shown
light: B1 light
notes: heterodimerized: alteration in one H chain only; also called He Ab S337_19Q
B23: GpH7-A5/GpH7-B3 variant S337_09D/GpL16-k0 (antibody, human IgG1, kappa)
heavy 1: not shown
heavy 2: not shown
light: B1 light
notes: heterodimerized: alteration in one H chain only; also called He Ab S337_09D
B24: GpH7-A5/GpH7-B3 variant S337_20W/GpL16-k0 (antibody, human IgG1, kappa)
heavy 1: not shown
heavy 2: not shown
light: B1 light
notes: heterodimerized: alteration in one H chain only; also called He Ab S337_20W
B25: GpH7-A5/GpH7-B3 variant D270_03V/GpL16-k0 (antibody, human IgG1, kappa)
heavy 1: not shown
heavy 2: not shown
light: B1 light
notes: as for B2
B26: GpH7-A5/GpH7-B3 variant S337_16H/GpL16-k0 (antibody, human IgG1, kappa)
heavy 1: not shown
heavy 2: not shown
light: B1 light
notes: heterodimerized: alteration in one H chain only; also called He Ab S337_16H
B27: GpH7-A5/GpH7-B3 variant D270_07I/GpL16-k0 (antibody, human IgG1, kappa)
heavy 1: not shown
heavy 2: not shown
light: B1 light
notes: as for B2
B28: GpH7-A5/GpH7-B3 variant T335_13S/GpL16-k0 (antibody, human IgG1, kappa)
heavy 1: not shown
heavy 2: not shown
light: B1 light
notes: heterodimerized: alteration in one H chain only; also called He Ab T335_13S
B29: GpH7-A5/GpH7-B3 variant D270_11K/GpL16-k0 (antibody, human IgG1, kappa)
heavy 1: not shown
heavy 2: not shown
light: B1 light
notes: as for B2
B30: GpH7-A5/GpH7-B3 variant T335_02A/GpL16-k0 (antibody, human IgG1, kappa)
heavy 1: not shown
heavy 2: not shown
light: B1 light
notes: heterodimerized: alteration in one H chain only; also called He Ab T335_02A
B31: GpH7-A5/GpH7-B3 variant S337_18N/GpL16-k0 (antibody, human IgG1, kappa)
heavy 1: not shown
heavy 2: not shown
light: B1 light
notes: heterodimerized: alteration in one H chain only; also called He Ab S337_18N

How the values were obtained:
FcγRIIb [1] = target: T1, FcγRIIb; assay: SPR (Biacore), captured antibody, FcγR as analyte; relative binding, control GpH7-A5/GpH7-B3/GpL16-k0 = 100
Protocol: (§1) The heterodimerized antibodies He Abs in which one of the H chains was introduced with an alteration were assayed for their binding activities to each activating FcγR and inhibitory FcγR according to the method described in Example 4. […] The activating FcγRs in FIGS. 26, 27, 28, and 29 are FcγRIa, FcγRIIa (R), FcγRIIa (H), and FcγRIIIa, respectively.
(§2) Analysis of interaction between objective antibody and the FcγR was carried out using Biacore T100 (GE Healthcare). HBS-EP+ (GE Healthcare) was used as the running buffer, and the measurement temperature was set to 25° C. Chips produced by immobilizing the antigen peptide by the amine coupling method to a Series S Sencor Chip CM5 (GE Healthcare), or alternatively, chips produced by allowing preliminarily biotinylated antigen peptides to interact with and immobilize onto a Series S Sensor Chip SA (certified) (GE Healthcare) were used. Antibodies of interest were captured onto an antigen peptide-immobilized chip, and allowed to interact to each FcγR diluted with running buffer. To regenerate and repeatedly use the chip, the antibodies captured on the chip were washed off by reacting 10 mM glycine-HCl, pH 1.5.

FcγRIIa H [2] = target: T2, FcγRIIa H; assay: ratio of He/Con_2aH to He/Con_2b (FcγRIIb); SPR
FcγRIIa H [3] = target: T2, FcγRIIa H; assay: SPR (Biacore), captured antibody, FcγR as analyte; GpH7-A5/GpH7-B3/GpL16-k0 = 100
Protocol: as §1, §2

FcγRIIb [4] = target: T3, FcγRIIb; assay: as above
Protocol: as §1, §2

[5] = target: T4, FcγRIIa R extracellular domain with …; assay: SPR (Biacore), relative FcγRIIa R binding, GpH7-A5/GpH7-B3/GpL16-k0 = 100

Binder	He/Con_2b (FcγRIIb [1])	He_2aH/2b (IIaH/IIb ratio) (FcγRIIa H [2])	He/Con_2aH (relative binding) (FcγRIIa H [3])	He/Con_2b (relative binding) (FcγRIIb [4])	He/Con_2aR [5]
B1	0.6 control = 100				
B2		1.72	52.5%	30.5%	
B3					109 % of control
B4		1.58	76.4%	48.3%	
B5		1.51	71.5%	47.2%	
B6					111 % of control
B7		1.77	85%	48%	
B8		1.41	75.8%	53.6%	
B9		1.34	102%	76.5%	
B10		2.16	39.5%	18.3%	
B11	-1.1 control = 100				
B12		1.55	62.5%	40.3%	
B13					112 % of control
B14		1.61	71.2%	44.2%	
B15		1.3	75.3%	57.8%	
B16					104 % of control

Binder	He/Con_2b (FcγRIIb [1])	He_2aH/2b (IIaH/IIb ratio) (FcγRIIa H [2])	He/Con_2aH (relative binding) (FcγRIIa H [3])	He/Con_2b (relative binding) (FcγRIIb [4])	He/Con_2aR [5]
B17		1.54	74.4%	48.2%	
B18	1.1 control = 100				
B19					105 % of control
B20		1.6	71.9%	44.9%	
B21		1.42	75.4%	53.1%	
B22					106 % of control
B23					115 % of control
B24					110 % of control
B25		1.56	61.8%	39.5%	
B26					109 % of control
B27		1.54	64%	41.5%	
B28					110 % of control
B29		2.17	44%	20.3%	
B30					102 % of control
B31					107 % of control
